From PMC3206940 (PLoS ONE, 2011)

B1: HCoV-OC43 3C-like protease (3CL^pro) (enzyme)
chain: SGIVKMVNPTSKVEPCVVSVTYGNMTLNGLWLDDKVYCPRHVICSASDMTNPDYTNLLCRVTSSDFTVLFDRLSLTVMSYQMRGCMLVLTVTLQNSRTPKYTFGVVKPGETFTVLAAYNGKPQGAFHVTMRSSYTIKGSFLCGSCGSVGYVIMGDCVKFVYMHQLELSTGCHTGTDFNGDFYGPYKDAQVVQLPIQDYIQSVNFLAWLYAAILNNCNWFIQSDKCSVEDFNVWALSNGFSQVKSDLVIDALASMTGVSLETLLAAIKRLKNGFQGRQIMGSCSFEDELTPSDVYQQLAGIKLQ
notes: also called 3CL^pro from HCoV-OC43; main protease; not shown: His6-SUMO or His6-MBP, N-terminal, cleaved
B2: SARS-CoV 3C-like protease (3CL^pro) (enzyme)
chain: SGFRKMAFPSGKVEGCMVQVTCGTTTLNGLWLDDTVYCPRHVICTAEDMLNPNYEDLLIRKSNHSFLVQAGNVQLRVIGHSMQNCLLRLKVDTSNPKTPKYKFVRIQPGQTFSVLACYNGSPSGVYQCAMRPNHTIKGSFLNGSCGSVGFNIDYDCVSFCYMHHMELPTGVHAGTDLEGKFYGPFVDRQTAQAAGTDTTITLNVLAWLYAAVINGDRWFLNRFTTTLNDFNLVAMKYNYEPLTQDHVDILGPLSAQTGIAVLDMCAALKELLQNGMNGRTILGSTILEDEFTPFDVVRQCSGVTFQ
notes: also called 3CL^pro from SARS-CoV; main protease

Target: the molecule itself
Experiment: SEC

Protein	stoichiometry N
B1	2
B2	2
